Test results taken from patent publication US20250237628A1 (JUNO THERAPEUTICS, published 2025).

Experiments:
[1] = molecular target: T1, Strep-Tactin M2 streptavidin mutein covalently immobilised on chromatography resin (Streptomyces avidinii, UniProt P22629 38-163, covalently coupled to the resin (CNBr-activated Sephadex G-50, agarose, or epoxy-activated polystyrene)); experiment: loading of Fab on Strep-Tactin Sephadex G50 resin, 20 min at 4 °C
T1 construct: also called immobilized Strep-Tactin; STREP-TACTIN M2 multimer reagent
Protocol: A 50% suspension of Sephadex G50 contained approximately 70 μg of covalently coupled 7 Strep-Tactin®/mL of the bead suspension. Following immobilization of STREP-TACTIN® onto the stationary phase, two mL of the suspension of Sephadex G50 with Strep-Tactin® was incubated with 10 μg of a selection agent specific to a T cell surface selection marker for 20 min at 4° C. in order to allow binding of the Fab fragment to the immobilized Strep-Tactin® reagent. The suspension was then filled in a plastic minicolumn with a 90 micrometer frit at the bottom. The column was equilibrated with PBS (phosphate buffered saline) containing 0.5% bovine serum albumin (PBSA buffer) to give a bed volume of 1 mL.

[2] = molecular target: T2, CD4 on the surface of human T cells (human, UniProt P01730 26-458); experiment: affinity column cell selection from apheresis, surface marker MFI of the collected cells by flow cytometry, 24 h with or without anti-CD3/anti-CD28 oligomeric reagent
T2 construct: whole, on cells; also called selection marker CD4
Protocol: Following immobilization of STREP-TACTIN® onto the stationary phase, two mL of the suspension of Sephadex G50 with Strep-Tactin® was incubated with 10 μg of a selection agent specific to a T cell surface selection marker for 20 min at 4° C. in order to allow binding of the Fab fragment to the immobilized Strep-Tactin® reagent. The suspension was then filled in a plastic minicolumn with a 90 micrometer frit at the bottom. The column was equilibrated with PBS (phosphate buffered saline) containing 0.5% bovine serum albumin (PBSA buffer) to give a bed volume of 1 mL.
As a control, an apheresis sample was loaded onto the anti-CD3 affinity column but without incubation in the presence of the anti-CD3/anti-CD28 oligomeric stimulatory reagent.

B1: anti-CD4 Fab fragment m13B8.2 with Twin Strep-Tag (Fab, V domains shown)
VH: QVQLKQSGPGLVQPSQSLSITCTVSGFSLTTFGVHWVRQSPGKGLEWLGVIWASGITDYNVPFMSRLSITKDNSKSQVFFKLNSLQPDDTAIYYCAKNDPGTGFAYWGQGTLVTVSA
VL: DIQMTQSPASLSASVGETVTFTCRASEMIYSYLAWYQQKQGKSPQLLVHDAKTLAEGVPSRFSGGGSGTQFSLKINTLQPEDFGTYYCQAHYGNPPTFGGGTKLEIKR
[1]
  binding result: binds
[2]
  binding result: binds
